19 molecules from patent US20190233493A1 (Sanofi, published 2019) can be followed below.

*1 amine or outer side, *2 acyl side, *3 side chain or, on linkers, in order; H or OH if unused. Primed or numbered codes have the meaning given here. Side-chain parts run from the residue outwards. [ ]: non-standard residue; d: D form. The star is where a group is joined. γGlu = O=C(O)[C@H](CCC(=O)[*:2])N[*:1]; Stearoyl = CCCCCCCCCCCCCCCCCC(=O)*; Palmitoyl = CCCCCCCCCCCCCCCC(=O)*; αMeK = C[C@](N)(CCCCN)C(=O)O; Nle = CCCC[C@H](N)C(=O)O; PEG2′ = PEG2 spacer unit; PEG2″ = not defined here; Aib = CC(C)(N)C(=O)O

The target in this assay is T1, RXFP1 receptor (UniProt Q9HBX9 1-757, limits assumed).
T1 sequence (looked up): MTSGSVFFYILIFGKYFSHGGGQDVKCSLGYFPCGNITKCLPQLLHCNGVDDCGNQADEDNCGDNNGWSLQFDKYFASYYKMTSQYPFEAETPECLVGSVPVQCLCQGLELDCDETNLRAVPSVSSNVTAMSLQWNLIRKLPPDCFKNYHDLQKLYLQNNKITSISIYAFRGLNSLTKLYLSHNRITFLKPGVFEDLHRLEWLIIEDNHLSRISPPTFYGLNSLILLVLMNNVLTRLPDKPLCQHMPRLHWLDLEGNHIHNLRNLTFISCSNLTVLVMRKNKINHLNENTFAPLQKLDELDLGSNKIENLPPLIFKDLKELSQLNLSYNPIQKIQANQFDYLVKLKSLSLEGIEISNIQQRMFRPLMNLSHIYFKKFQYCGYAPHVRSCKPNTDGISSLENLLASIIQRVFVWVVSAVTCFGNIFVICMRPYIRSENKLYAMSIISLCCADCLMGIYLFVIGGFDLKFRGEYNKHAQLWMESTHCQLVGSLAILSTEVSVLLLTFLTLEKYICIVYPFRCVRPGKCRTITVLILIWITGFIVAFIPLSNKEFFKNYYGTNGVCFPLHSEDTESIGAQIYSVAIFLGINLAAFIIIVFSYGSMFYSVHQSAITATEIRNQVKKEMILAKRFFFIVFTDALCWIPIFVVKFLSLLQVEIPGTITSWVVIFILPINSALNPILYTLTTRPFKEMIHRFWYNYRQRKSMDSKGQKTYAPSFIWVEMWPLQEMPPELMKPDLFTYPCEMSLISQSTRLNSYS
As to the kind of experiment: cell-based or functional assay.

Turning to Ac-LEGREKVRAQI[Aib][Aib]EG[Nle]STWS[Aib]RKK([PEG2′-γGlu-γGlu-γGlu-Palmitoyl])-NH2 [peptide of SEQ ID NO: 55], the “EC50 (nM), OVCAR 5 cells (cAMP)” value was 19.3 nM and the “EMax, OVCAR 5 cells (cAMP)” value is 94%.

Turning to Ac-ELEGREKVRAAI[Aib][Aib]EG[Nle]STWS[Aib]RKK([PEG2′-PEG2′-γGlu-γGlu-Palmitoyl])-NH2 [peptide of SEQ ID NO: 57], the “EC50 (nM), OVCAR 5 cells (cAMP)” value worked out at 4.4 nM and the “EMax, OVCAR 5 cells (cAMP)” value stood at 93%.

As for Ac-LEGREKVRAK(Ac)I[Aib][Aib]EG[Nle]STWS[αMeK]RKK(Ac)K([PEG2″-PEG2″-PEG2″-γGlu-γGlu-γGlu-γGlu-Palmitoyl])-NH2 [peptide of SEQ ID NO: 65], the “EC50 (nM), OVCAR 5 cells (cAMP)” value amounted to 0.12 nM and the “EMax, OVCAR 5 cells (cAMP)” value amounted to 93%.

Turning to Ac-LEGREKVRAK(Ac)I[Aib][Aib]EG[Nle]STWS[Aib]RKK(Ac)K([PEG2′-PEG2′-PEG2′-γGlu-γGlu-γGlu-Palmitoyl])-NH2 [peptide of SEQ ID NO: 63], the “EC50 (nM), OVCAR 5 cells (cAMP)” value amounted to 0.84 nM and the “EMax, OVCAR 5 cells (cAMP)” value is 80%.

Ac-LEGREKVRAQI[Aib][Aib]EG[Nle]STWS[Aib]RKK(Ac)K([PEG2′-PEG2′-PEG2′-Stearoyl])-NH2 [peptide of SEQ ID NO: 52]: the “EC50 (nM), OVCAR 5 cells (cAMP)” value came to 56 nM and the “EMax, OVCAR 5 cells (cAMP)” value is 98%.

In the case of Ac-LEGREKVRAQI[Aib][Aib]EG[Nle]STWS[Aib]RKK(Ac)K([PEG2′-PEG2′-Stearoyl])-NH2 [peptide of SEQ ID NO: 51], the “EC50 (nM), OVCAR 5 cells (cAMP)” value stood at 71.2 nM and the “EMax, OVCAR 5 cells (cAMP)” value was 100%.

B1: peptide of SEQ ID NO: 1 (peptide)
peptide: Ac-LEGREKVRAAI[Aib][Aib]EG[Nle]STWS[Aib]RKK(Palmitoyl)-NH2
SMILES: CCCCCCCCCCCCCCCC(=O)NCCCC[C@H](NC(=O)[C@H](CCCCN)NC(=O)[C@H](CCCNC(=N)N)NC(=O)C(C)(C)NC(=O)[C@H](CO)NC(=O)[C@H](Cc1c[nH]c2ccccc12)NC(=O)[C@@H](NC(=O)[C@H](CO)NC(=O)[C@H](CCCC)NC(=O)CNC(=O)[C@H](CCC(=O)O)NC(=O)C(C)(C)NC(=O)C(C)(C)NC(=O)[C@@H](NC(=O)[C@H](C)NC(=O)[C@H](C)NC(=O)[C@H](CCCNC(=N)N)NC(=O)[C@@H](NC(=O)[C@H](CCCCN)NC(=O)[C@H](CCC(=O)O)NC(=O)[C@H](CCCNC(=N)N)NC(=O)CNC(=O)[C@H](CCC(=O)O)NC(=O)[C@H](CC(C)C)NC(C)=O)C(C)C)[C@@H](C)CC)[C@@H](C)O)C(N)=O
As for B1, the “EC50 (nM), OVCAR 5 cells (cAMP)” value worked out at 85.3 nM and the “EMax, OVCAR 5 cells (cAMP)” value amounted to 85%.

For Ac-ELEGREKVRAAI[Aib][Aib]EG[Nle]STWS[Aib]RKK([PEG2′-γGlu-γGlu-Palmitoyl])-NH2 [peptide of SEQ ID NO: 54], the “EC50 (nM), OVCAR 5 cells (cAMP)” value was 18.6 nM and the “EMax, OVCAR 5 cells (cAMP)” value amounted to 98%.

With Ac-LEGREKVRAK(Ac)I[Aib][Aib]EG[Nle]STWS[Aib]RKK([PEG2′-PEG2′-γGlu-γGlu-γGlu-Palmitoyl])-NH2 [peptide of SEQ ID NO: 59], the “EC50 (nM), OVCAR 5 cells (cAMP)” value was 28.2 nM and the “EMax, OVCAR 5 cells (cAMP)” value was 85%.

Ac-LEGREKVRAK(Ac)I[Aib][Aib]EG[Nle]STWS[Aib]RKK(Ac)K([PEG2″-PEG2″-PEG2″-PEG2″-γGlu-γGlu-γGlu-Palmitoyl])-NH2 [peptide of SEQ ID NO: 64]: the “EC50 (nM), OVCAR 5 cells (cAMP)” value was determined as 0.2 nM and the “EMax, OVCAR 5 cells (cAMP)” value amounted to 81%.

B2: peptide of SEQ ID NO: 5 (peptide)
peptide: Ac-LEGREKVRAQI[Aib][Aib]EGMSTWS[Aib]RK([γGlu-γGlu-Palmitoyl])-NH2
SMILES: CCCCCCCCCCCCCCCC(=O)N[C@@H](CCC(=O)N[C@@H](CCC(=O)NCCCC[C@H](NC(=O)[C@H](CCCNC(=N)N)NC(=O)C(C)(C)NC(=O)[C@H](CO)NC(=O)[C@H](Cc1c[nH]c2ccccc12)NC(=O)[C@@H](NC(=O)[C@H](CO)NC(=O)[C@H](CCSC)NC(=O)CNC(=O)[C@H](CCC(=O)O)NC(=O)C(C)(C)NC(=O)C(C)(C)NC(=O)[C@@H](NC(=O)[C@H](CCC(N)=O)NC(=O)[C@H](C)NC(=O)[C@H](CCCNC(=N)N)NC(=O)[C@@H](NC(=O)[C@H](CCCCN)NC(=O)[C@H](CCC(=O)O)NC(=O)[C@H](CCCNC(=N)N)NC(=O)CNC(=O)[C@H](CCC(=O)O)NC(=O)[C@H](CC(C)C)NC(C)=O)C(C)C)[C@@H](C)CC)[C@@H](C)O)C(N)=O)C(=O)O)C(=O)O
As for B2, the “EC50 (nM), OVCAR 5 cells (cAMP)” value amounted to 86.8 nM and the “EMax, OVCAR 5 cells (cAMP)” value came out at 105%.

B3: peptide of SEQ ID NO: 6 (peptide)
peptide: Ac-ELEGREKVRAAI[Aib][Aib]EG[Nle]STWS[Aib]RKKK([γGlu-γGlu-γGlu-Palmitoyl])-NH2
SMILES: CCCCCCCCCCCCCCCC(=O)N[C@@H](CCC(=O)N[C@@H](CCC(=O)N[C@@H](CCC(=O)NCCCC[C@H](NC(=O)[C@H](CCCCN)NC(=O)[C@H](CCCCN)NC(=O)[C@H](CCCNC(=N)N)NC(=O)C(C)(C)NC(=O)[C@H](CO)NC(=O)[C@H](Cc1c[nH]c2ccccc12)NC(=O)[C@@H](NC(=O)[C@H](CO)NC(=O)[C@H](CCCC)NC(=O)CNC(=O)[C@H](CCC(=O)O)NC(=O)C(C)(C)NC(=O)C(C)(C)NC(=O)[C@@H](NC(=O)[C@H](C)NC(=O)[C@H](C)NC(=O)[C@H](CCCNC(=N)N)NC(=O)[C@@H](NC(=O)[C@H](CCCCN)NC(=O)[C@H](CCC(=O)O)NC(=O)[C@H](CCCNC(=N)N)NC(=O)CNC(=O)[C@H](CCC(=O)O)NC(=O)[C@H](CC(C)C)NC(=O)[C@H](CCC(=O)O)NC(C)=O)C(C)C)[C@@H](C)CC)[C@@H](C)O)C(N)=O)C(=O)O)C(=O)O)C(=O)O
As to B3, the “EC50 (nM), OVCAR 5 cells (cAMP)” value worked out at 18 nM and the “EMax, OVCAR 5 cells (cAMP)” value was determined as 100%.

Ac-LEGREKVRAQI[Aib][Aib]EG[Nle]STWS[Aib]RKK([PEG2′-Palmitoyl])-NH2 [peptide of SEQ ID NO: 50]: the “EC50 (nM), OVCAR 5 cells (cAMP)” value was 75.9 nM and the “EMax, OVCAR 5 cells (cAMP)” value is 95%.

Regarding Ac-LEGREKVRAK(Ac)I[Aib][Aib]EG[Nle]STWS[Aib]RKKK([PEG2′-PEG2′-γGlu-γGlu-γGlu-Palmitoyl])-NH2 [peptide of SEQ ID NO: 60], the “EC50 (nM), OVCAR 5 cells (cAMP)” value was 0.11 nM and the “EMax, OVCAR 5 cells (cAMP)” value stood at 91%.

For the molecule Ac-LEGREKVRAK(Ac)I[Aib][Aib]EGK(Ac)STWS[Aib]RKKK([PEG2′-PEG2′-γGlu-γGlu-γGlu-Palmitoyl])-NH2 [peptide of SEQ ID NO: 61], the “EC50 (nM), OVCAR 5 cells (cAMP)” value turned out to be 0.17 nM and the “EMax, OVCAR 5 cells (cAMP)” value worked out at 93%.

Consider Ac-LEGREKVRAK(Ac)I[Aib][Aib]EG[Nle]STWS[Aib]RKK(Ac)K([PEG2′-PEG2′-γGlu-γGlu-γGlu-Palmitoyl])-NH2 [peptide of SEQ ID NO: 62], for which the “EC50 (nM), OVCAR 5 cells (cAMP)” value turned out to be 1.14 nM and the “EMax, OVCAR 5 cells (cAMP)” value came to 87%.

For the molecule Ac-LEGREKVRAQI[Aib][Aib]EG[Nle]STWS[Aib]RKK([PEG2′-γGlu-Palmitoyl])-NH2 [peptide of SEQ ID NO: 53], the “EC50 (nM), OVCAR 5 cells (cAMP)” value came out at 15.3 nM and the “EMax, OVCAR 5 cells (cAMP)” value came to 97%.

Turning to Ac-LEGREKVRAQI[Aib][Aib]EG[Nle]STWS[Aib]RKKK([PEG2′-PEG2′-γGlu-Stearoyl])-NH2 [peptide of SEQ ID NO: 56], the “EC50 (nM), OVCAR 5 cells (cAMP)” value was 0.51 nM and the “EMax, OVCAR 5 cells (cAMP)” value worked out at 95%.

As to Ac-LEGREKVRAQI[Aib][Aib]EG[Nle]STWS[Aib]RKK([PEG2′-PEG2′-γGlu-γGlu-γGlu-Palmitoyl])-NH2 [peptide of SEQ ID NO: 58], the “EC50 (nM), OVCAR 5 cells (cAMP)” value amounted to 14.8 nM and the “EMax, OVCAR 5 cells (cAMP)” value was 83%.
